The values below come from patent publication EP1088233B9, “A BIOLUMINESCENCE RESONANCE ENERGY TRANSFER (BRET) SYSTEM AND ITS USE” (PerkinElmer BioSignal Inc., priority 1998, dated 1999).

The target of data set [1] is calcitonin receptor expressed endogenously by CHO-K1 cells. The data set is described as follows: cell-based or functional assay.
A short description of data set [2]: Cell viability by trypan blue dye in BRET assay media. The following applies: hamster, cho cells. It counts as cell-based. As for the experimental part: The effect of the type of media on the luminescence of the Rluc was assayed in absence or in the presence of various amount of DTT. Transfected CHO cells were collected and redistributed in 96 well plate using different media conditions (Figures 24-26). Luminescence timecourses at 470nm (TopCount) were performed at 25°C upon coelenterazine addition. The effects of three different media were assayed: PBS Ca^2+/Mg^2+ (Figure 24), PBS Ca^2+/Mg^2+ + glucose (Figure 25) and DMEM without phenol red (Figure 26).
Similar results were found in presence of 100mM DTT: PBS alone gave higher long term counts. As expected, increasing the concentration of DTT improved Rluc stability in all three media. Unfortunately, high amounts of DTT (50 and 100mM) which gave the best stability, damaged the cells: viability was assayed using trypan blue dye and decreased more than 20% over a period of 2 hours. […] This concentration was chosen for the BRET assays. […] However, DTT is not necessary for the BRET reaction to occur efficiently: as it acts as a boost for the Rluc long term emission.
In order to avoid cell damage during the assay procedure and timecourse experiments, an analysis was conducted to determine whether the use of aprotinin perturbs ratiometric measurements. Aprotinin is a protease inhibitor which is often used during cell culture to maintain cell integrity. […]

The nature of data set [3]: Effect of DTT on BRET ratio in stable cell lines expressing Rluc or Rluc::EYFP (BRETCount). The class given is cell-based. As to conditions: DTT 10mM in PBS+Ca2+/Mg2++glucose. As for the experimental part: PBS=PBS+Ca^2+/Mg^2++glucose. DTT 10mM. […] PBS=PBS+Ca^2+/Mg^2++glucose DTT 10mM.
In PBS (Ca ^2+/Mg^2++glucose) alone, BRET ratios are lower than in presence of DTT. When DTT is added, ratios increase by almost 0.1 BRET unit.

The target of data set [4] is T1, Rluc (Renilla reniformis, UniProt P27652).
T1 sequence (P27652 1-311): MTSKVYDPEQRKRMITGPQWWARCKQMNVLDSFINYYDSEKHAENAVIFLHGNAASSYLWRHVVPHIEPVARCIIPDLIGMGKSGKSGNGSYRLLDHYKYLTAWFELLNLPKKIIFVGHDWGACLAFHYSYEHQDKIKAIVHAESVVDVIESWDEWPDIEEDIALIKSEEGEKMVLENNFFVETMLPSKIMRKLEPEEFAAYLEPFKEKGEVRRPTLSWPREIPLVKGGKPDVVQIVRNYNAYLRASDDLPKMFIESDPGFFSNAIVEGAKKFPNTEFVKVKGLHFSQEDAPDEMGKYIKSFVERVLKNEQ
Briefly: Rluc luminescence with coelenterazine derivatives in cells transfected with pRluc-CMV (LumiCount). More on the design: Normalized RLU: dose or concentration left out as unconfirmed. The following applies: for Normalized RLU: derivatives, 4 minutes after addition; for half-life of the reaction (Rluc luminescence): coelenterazine f 1 mM.
Procedure: i) Coelenterazine derivatives. […] Cells (HeLa) were transiently transfected inT-75 flask with pRluc-CMV orcontrol vector using LipofectAMINE. At 48 hours post-transfection, cells were harvested and seeded in 96-well white ViewPlate (in duplicate). Coelenterazine derivatives (1 mM) were then added in each well. Luminescence from transfected cells was measured using the LumiCount 4 minutes after addition of coelenterazine derivatives. LumiCount was set at 1100V PMT and 1 sec read length.
Cells (HeLa and CHO) were transiently transfected inT-75 flasks with pRluc-CMV using LipofectAMINE. At 48 hours post-transfection, cells were harvested and seeded in 96-well white ViewPlate at a density of 50 000 cells per wells (in quadruplicate). Coelenterazine f (1 mM) was then added in each well. Luminescence from transfected cells was measured using the LumiCount at different times after addition of coelenterazine. LumiCount was set at 1100V PMT and 0.1 sec read length.

The subject of data set [5] is HeLa cells transfected with the apoptosis sensor. Briefly: Apoptosis sensor (Rluc-caspase-EYFP) BRET assay. It counts as cell-based. As to conditions: staurosporine 1mM, 5 hours of apoptosis induction, 10 minutes after coelenterazine h. The text has this:
A BRET apoptosis sensor was engineered by introducing a caspase-3 recognition site in the linker regionof the Rluc-EYFP fusionconstruct. Upon inductionof apoptosis, caspase-3 should recognize and cleave the linker region which should separate Rluc of EYFP and thereby decrease the BRET ratio over time.
pCEP4/Rluc-EYFP and pCEP4/Rluc-caspase-EYFP DNAs were transfected into HeLa cell using LipofectAMINE (BRL/Gibco-Life technologies) in 100mm dishes as described in the manufacturer's protocol. 24 hours post-transfection, transfected cells were harvested and distributed into 96-well microplates (white Optiplate from Packard) at a density of 30,000 cells per well. The following day, cells are induced to undergo apoptosis using staurosporine 1mM dissolved in ISCOVE media (BRL/Gibco-Life technologies) without serum and phenol red at 37°C (total volume here is […]) for 5 hours. […] of BRET buffer (PBS Ca^2+/Mg^2+ + glucose without aprotinin) and […] of coelenterazine h […] is added to start the bioluminescent reaction. Light emissions are detected using the BRETCount (read length sec for each filter, temperature 25°C). Data was collected 10 minutes after addition of coelenterazine h. The assay was done in quadruplicate.
Figure 31 gives representative BRET ratio changes in HeLa cells after 5 hours of apoptosis induction by staurosporine. […]
(In BRET a luciferase serves as donor, and the signal depends on an acceptor being close.)

Data set [6] deals with Rluc-caspase-EYFP (apoptosis sensor) (Renilla reniformis; Aequorea victoria) (UniProt P27652). The data set is described as follows: cell-based or functional assay.
Data set [7] has as its target T2, calcitonin receptor (Cricetulus griseus, UniProt G3GXI2).
T2 sequence (G3GXI2 40-539): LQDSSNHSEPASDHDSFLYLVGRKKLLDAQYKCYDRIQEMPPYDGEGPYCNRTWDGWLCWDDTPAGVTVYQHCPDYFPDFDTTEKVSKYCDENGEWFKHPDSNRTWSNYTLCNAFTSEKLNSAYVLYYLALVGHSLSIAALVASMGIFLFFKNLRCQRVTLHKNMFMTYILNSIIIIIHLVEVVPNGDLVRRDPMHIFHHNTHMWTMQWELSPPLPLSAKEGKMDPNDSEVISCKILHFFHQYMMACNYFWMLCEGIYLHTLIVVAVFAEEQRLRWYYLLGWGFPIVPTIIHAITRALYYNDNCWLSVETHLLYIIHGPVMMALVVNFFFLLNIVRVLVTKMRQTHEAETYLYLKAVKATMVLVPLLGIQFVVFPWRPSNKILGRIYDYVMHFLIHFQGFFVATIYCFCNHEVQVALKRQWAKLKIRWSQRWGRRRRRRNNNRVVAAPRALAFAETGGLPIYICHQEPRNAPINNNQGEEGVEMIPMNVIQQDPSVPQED
Briefly: cAMP sensor (CBP:CREB) BRET assay in CHO-K1 cells, endogenous calcitonin receptor. The class given is cell-based. As for the experimental part: The pCDNA3./Rluc-CBP-NLS and pCDNA3.1 /EYFP-CREB-NLS DNA constructs were transiently transfected into CHO-K1, CHO-CCRS or CHW-β2 cell lines using LipofectAMINE™ (BRL/Gibco-Life technology, Gaethersburg, MD) using equal amount (4 µg) of DNA for each construct in 100mm dishes.
BRET assay using the transfected cells in suspension. At 48 hours post-transfection, the transfected cells were starved for 2 hours in a mixture of PBS + Ca2 + 1 mM/Mg2 + 0.5mM + glucose 1 g/l +aprotinin 2 µg/ml at 37°C before being harvested, washed with a mixture of PBS Ca2+/Mg2+ + glucose + aprotinin 2 µg/ml and counted. […]
BRET assay using transfected cells attached onto the bottom of the microplate. […] At 48 hours post-transfection, the transfected cells were starved as previously mentioned, washed and then analyzed without being harvested.
The assay conditions for both methods (cell in suspension or attached), cells were in PBS Ca2+ Mg2+ + glucose + aprotinin 2 µg/ml in volume of […]. […] Each well was read using both filters for 1 second each.
The CHO-K1 cells were transfected with both constructs. At 48 hours post-transfection, the cells were starved for 2 hours, washed, harvested and counted. […] The microplate was loaded into the BRETCount and light outputs at 470nm and 550nm were determined at several points to determine a timecourse (fig. 10). […]

For data set [8], the target named is T2, calcitonin receptor. As to conditions: literature values; read-out: EC50 found in literature for a functional assay; cited from earlier work.
In data set [9] the target is enhanced yellow fluorescent protein (EYFP) (Aequorea victoria). Briefly: BRET in co-transfected cells, LumiCount, white microplate, 100 ul, 5 uM coelenterazine, 50,000 cells per well.
The target is the same in data set [10]. The data set is described as follows: BRET in co-transfected cells, LumiCount, white microplate, 200 ul, 5 uM coelenterazine, 50,000 cells per well.
For data set [11] the target is unchanged. The data set is described as follows: BRET in co-transfected cells, LumiCount, black microplate, 200 ul, 5 uM coelenterazine, 50,000 cells per well.
Data set [12] deals with EGF receptors expressed endogenously by GH4-C1 cells. The data set is described as follows: cell-based or functional assay.
Data set [13] deals with EYFP•KaiB fusion protein (Aequorea victoria; Synechococcus (cyanobacterium)) (UniProt Q79PF5). Briefly: BRET luminescence spectra, co-expression in E. coli.
Data set [14] has the same target. The data set is described as follows: BRET imaging of E. coli cultures through 480 and 530 nm filters, cooled-CCD camera.
The target in data set [15] is EYFP•KaiA fusion protein (Aequorea victoria; Synechococcus (cyanobacterium)) (UniProt Q79PF6). The description is as above.

Read-outs that look alike come from different tables or passages of the source. Some results are limits rather than exact numbers.

Chain of EYFP•KaiB fusion protein (Aequorea victoria; Synechococcus (cyanobacterium)) (Q79PF5 whole entry, the tested form may be a part): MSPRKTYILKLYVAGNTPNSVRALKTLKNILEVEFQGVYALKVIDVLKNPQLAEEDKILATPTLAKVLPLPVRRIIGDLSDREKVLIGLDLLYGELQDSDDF
Chain of EYFP•KaiA fusion protein (Aequorea victoria; Synechococcus (cyanobacterium)) (Q79PF6 whole entry, the tested form may be a part): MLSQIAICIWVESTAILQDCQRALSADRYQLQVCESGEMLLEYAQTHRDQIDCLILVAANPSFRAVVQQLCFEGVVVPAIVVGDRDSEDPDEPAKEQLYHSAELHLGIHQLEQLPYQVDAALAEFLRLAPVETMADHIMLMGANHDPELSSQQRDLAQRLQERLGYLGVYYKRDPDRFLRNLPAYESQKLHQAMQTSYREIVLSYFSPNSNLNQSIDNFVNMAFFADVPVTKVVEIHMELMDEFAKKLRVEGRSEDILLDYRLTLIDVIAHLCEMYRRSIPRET

As for calcitonin (peptide), the EC50 of the calcitonin dose response, BRET ratio of the cAMP sensor in attached CHO-K1 cells at 45 minutes in data set [1] is 0.027 nM.
Turning to `OC(CS)C(O)CS` (stereo not shown) [DTT], in data set [2] (DTT 10mM, over 2 hours, read-out: viability loss), the cytotoxicity at 2 h, 10000 µM was < 15%. Moreover, in [2] (DTT 50 and 100mM, over a period of 2 hours, read-out: viability decrease), the cytotoxicity at 2 h is > 20%. Moreover, in [3], the “increase of BRET ratio” value is ~0.1 BRET unit.
Take `Oc1ccc(-c2cn3c(O)c(Cc4ccccc4)nc3c(CC3CCCC3)n2)cc1` [hcp]: in data set [4] (HeLa cells), the “Normalized RLU” value was 48144 RLU.
For `CN[C@@H]1C[C@H]2O[C@@](C)([C@@H]1OC)n1c3ccccc3c3c4c(c5c6ccccc6n2c5c31)C(=O)NC4` [staurosporine], the “BRET ratio change (decrease)” value in data set [5] turned out to be 0.1 unit.
As for “caspase-3 (endogenous in HeLa cells) (from UniProt P42574 29-277) (enzyme)”, the BRET ratio change in HeLa cells after 5 hours of apoptosis induction by staurosporine in [6] amounted to 0.1 unit.
Turning to calcitonin, the EC50 in [7] (CHO-K1 transfected with cAMP sensor, attached cells, data point at 45 minutes after addition of coelenterazine) is 0.027 nM; in [8], 0.03 to 0.06 nM. Moreover, in [7] (calcitonin 2 nM and 10nM, CHO-K1 cells in suspension, compared to buffer alone), the “BRET ratio over time” value was “Ratios increased over time”.
For “Renilla luciferase (RLUC) (from UniProt P27652 1-311) (enzyme)”, the results for the Ratio 530/480 in data set [9], in [10] and in data set [11] were 0.9, 0.87 and 0.76, respectively.
In the case of EGF (ligand), the EC50 of the EGF dose response, BRET ratio of the TKR sensor (Rluc-PTB + EYFP-SH2) in GH4-C1 cells at 45 minutes post induction in data set [12] is 0.92 nM.
`Oc1ccc(-c2cn3c(O)c(Cc4ccccc4)nc3c(Cc3ccccc3)n2)cc1` [h, coelenterazine h]: the “Normalized RLU” value in data set [4] (HeLa cells) was 173547 RLU.
Consider `Oc1ccc(Cc2nc3c(Cc4ccccc4)nc(-c4ccc(O)cc4)cn3c2O)cc1` [native, coelenterazine], for which, in [4] (HeLa cells), the “Normalized RLU” value was 2030 RLU.
`Oc1ccc(-c2cn3c(O)c(Cc4ccc(F)cc4)nc3c(Cc3ccccc3)n2)cc1` [f, coelenterazine f]: in data set [4] (CHO cells), the “half-life of the reaction (Rluc luminescence)” value was 11 min. Besides, in [4] (HeLa cells), the “half-life of the reaction (Rluc luminescence)” value is 13 min and the “Normalized RLU” value amounted to 180126 RLU.
Compound “RLUC•KaiB fusion protein (from UniProt Q79PF5 1-102)” showed a share of the RLUC luminescence for which energy transfer occurs in data set [13] of 50%. The 530/480nm ratio of luminescence is 0.9 in data set [14] and 0.4 in [15].

A word on the EC50: it is the concentration at which the effect is half-maximal.
